# Source: the NTF2 design screens of Basanta et al. (2020)
# Experiment: protease stability score; higher = more stable; yeast display proteolysis, trypsin and chymotrypsin;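 also: log10 excess protease needed over predicted unfolded state with 0 meaning unfolded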
row,Sequence,protease stability score
1,DEDHLKKFVSDLQHNSHERLSKQADENAEMEVGNKTYSGREQFSHFAQQQYHRADHFTIDRVEIRNGHITLEAVMVVDGHKIRFSAHAELHNGRLKFYVMKATNEDLVRQMNRLNN,0.701
2,DEDHLRKLKEYVKNYNKGDPDKLDEYLDPNVRINVGDHTVHGMDEHNKQAEERTRNMRIQLRRVDVKARNGQLKATINAEAEVNGRPATLHADITVKMHNGKVKNIHVRMPEDYKREREK,0.008
3,DEDHMRTLIQRFIEAVQKGDEEQIKRLADPNARMRVGEREIHGREEIAKEIKDIRDQVDHINIRTWSFHNGEAHLEVEYNHNGQHRTMKLRIVVRNGKLQELEWRKG,2.39
4,DEDHNRRLAHTIVEILRTGDPDKMNEQLDPNARAHYGDHEIHGRENVAKMVKELHDRVDHFTVKTYDADGDHITIELVMKVNGRNVEMTVVVRVRNGRLVDLRYRYTSEEQEKTEKE,2.12
5,DEDHNRRVAKRFIEAVLSGDPEQAKRNADKHVKLQVGDKEYRGRDDLKTWIEQVSTRADHNQIHSMSVSGNRMNVDVKFNHNGRRERTVIRVEVENGKVKKVEVHSG,0.975
6,DEDHQAEKIFRDLVEAFKNGDEKRAEELFDPNARLQYGDKTYHGRKAASRLVSHVRTEFDHVDWQIKSVTRTGDKIDIDVDATADHNGHQDKFKIIITLKVTNGKAVLKEVRFK,1.94
7,DEDHRERLANHAVEAFQDGDPQQMEELADEDARAEVGDKELTGRERISKMVKTIADNVDHIELKSYEKTGDTVRFHMVLDDNGKQKRLVLVVRIHNGRLKELRIQQS,1.53
8,DEDHVQDKAEDLARAIQRGDEDRMNELFDENVKVQVGDKTIHGRENVVDHMREQNEQADRIEIKSITATGDKIRIEMVVVHNGQNTHVVFEVKWENGKIKHMTQKTE,1.94
9,DEDINKMVKEFIRNMQNGNHSRLAQLADPNARVQIGDKTLHGREDLERHVRELTERSRVEYKSVDVKVHNGRAHLHLDVVVHHNGRPQRSRVQAVFTAQGDKIKDIRVESNQ,0.116
10,DEDIRRHVKEFIEALRTGNEDQLRTLADKNVRFEYGDKEIHGRETYAKHVKKLKEESSIEIKDYKVTAQGNTVSAKIRQVVNHNGKPQHHVVILQAVFHNGKLKEMRTKDDG,-0.26
11,DEDITEAVRRLEKAREDGDPNKVRELLPEDARAQYGDKTYHGRDEVAKYRETEMKQMTVQMNIRSVENHNGRADIEFEVTREHNGKPTHDHNRATILAHNGKIKVIEIHSTK,-0.422
12,DEDKAKEFMRKALHILLEGDPDKFVRMADKDAHIQVGEHTVHGREQVRKFIQELQDKVDHNDVVDYEVRPNHANIEFQMNVNGRTVRMRVRLEFKNGKFKRATFDPDDVRKLHT,1.33
13,DEDKARRLAEKLFEYMMKGKKDEAKKFLDPDVRYEYVDETVEGPKVAEHVVRKIRKLGMKVETKEMEIRGDKARAVFVYRNGDNQVETTVEAQYEGDKLKEVRVELTDEVKKQVTQG,0.804
14,DEDKARRVMEKLFKIVKNGNKDEMKKMGKPNVQYTYVDKRYEGEEAAKKDVEIDKEVGARVQERELEVKGDTVKAVFQYQQGDTTVQTHVEAHYEGDKVKEVKVELTEEVQKIVEQG,-0.248
15,DEDKEAEKLVKEMQENQRQGDEEKWANLFDEDAHFRIGDKHLHGRQDLQDNVRKWRHNYDHLSVRMKDLKHDGDKARLHVVITQRHNGKNDSMTVDIVIVKQNGRVRIKNFQAP,0.513
16,DEDKEAKKAIDDWKKIIDTNDEDQARRMFDPNAKVTIGDKTYHGREQASTLFHQLMKRFDHMSFHVDKVRVHNGQVDAVVTARFNHNGRTEEMRLRFRFDDHNGQLVIVQIDWE,1.35
17,DEDKEAREIAKKIARDLNRGNQEEVVKQFDPNVRLNIGDKEVTGREEVRKEVKKVQQKFDHADIRIRDYRSEGDSANLDFYLTLTHNGRHDKRRWTLHLENHNGRYIVKHVQHN,0.028
18,DEDKEDRVRTWVEAQKTGDPDKAKENADPNVRVEYGDKTIHGMSEIVKHIKREKHESRRTIDSYSVSASGDHITVRIDMHVKHDGQPRRKDYTETIVIRNGKIRHIKRRDDK,0.36
19,DEDKEDRVVKTFLTAVRTGDPHTARNMLDENARVHIGEKNFHGKERASEAIKEFRDQVDEVHIRTIKVRGDRFNIDMTLHFNGKNADLTVNVRVHNGKIQDVQFDPDQMQHLQG,0.86
20,DEDKEIRKFIKNNKDILKNGDPREYVRQMDPNAKMQYGDKQVRGNDQLERHLHTKLKRIDSQSVDFKDVDLKGDKIRLRARRTYQFNGRTSSEEFVVVMTFTNGQARVHKINYK,0.103
21,DEDKEKKINKDIADAWQNGDEQQMQKQIPPEVRIQVGDKTVHGREHIHKWMRRWRERVDHLQLKDMTAHNGNMRIKFVIRHNGRQDVRQVHIQVDNGTVHTASFDTE,0.43
22,DEDKEQELAHHIISIIQTGNPDSFMNMADPNAKVNIGDTRLRGREQIVHFYREQFRQADNREVKDVRAHNGRITIDAVRNINGRNERYVVDIQIENGKATEINVRHT,0.045
23,DEDKHAHELAKKLQKVWEEGAEEKQQELVDEDDRKNIGEHTYNGEEQLRRDLDKLRKDADHVDMKLKQIRFQGDKARIDMVVSQTVNGKRNTDRFTVEARLNNGRLRIKQVTKN,0.813
24,DEDKHAKRVMENLTRAMNQGDKRRAADMVDPNVRLVIGDKEYHGRHQFRRAIKELVDRADHIEIDVRDVKTKNGRVQAHAHVEATYNGKKNDFKMVAEVEVQGENVVVHQITLK,1.13
25,DEDKHAQDHMDQLTRLRKHGNFEKLANMADEDVEVHYGDKQVHGREQVVKTIKSEADDVDHFDVKVQEYHVQGDHIHVVNEFTLERNGQYRTDEQQFTVQITNGSIRIKNMTKK,-0.475
26,DEDKHVHRAFEEMLTVMEKGNEDEVKRLVDKDVRVHIGDKSYRGRTNVAKQIVDWARRADHIEIEVTEIDIQGDQVTMRATAHATHNGKTQSYDFTIILRIENGRAVIHSWHVS,0.923

row,Sequence,protease stability score
1,DEDKKADEFMKRWIDNLQNGNEDELRKLIDPNARLDIGDKTLHGREDIVHHLSETLKRVDHLEIRVEHIEVQGDKATFVYHITMRTNGRTHSSEVQFEAEEHNGNLIIKSIHER,1.57
2,DEDKKKHDLIHTFLTLQHNGDFKQLARMFDPNAKVRVGDKDIRGREQIEKMFEKVRESVDRVSVSLTHMDNHGDKVRMEARVTQHVNGRNHDFTITITFRQVGDKVRASHQSVS,0.584
3,DEDKLDHLARKAAEIMVQGDPDKFRDMFDPNAKLRYGDKELRGREEADKAIEEMQKRVDSSDVEDITAHNGRANAVLVLNHNGRHKRFVLVVDVRNGRATKASMHDD,-0.062
4,DEDKLKSMFRQLQRVLTQGNPHDARKLFDEDAHLVVGDKRWTGREEVVKFIEELTRRYDHLEIKSFSVSNGRMVVNASAHVNGKSIDIHYIMEVDNGRVKYLRVDVRNEEELKKVLS,1.27
5,DEDKLRDVAKRLQEIIHTNNPDDLNKQADKDARVQVGDKEYKGRRDVYKFMETLKHQVDQIEIHDVKFDGDHAHFHVMMNVNGKKVEVHIIMEVENGKVKELNFDPKNMEQLDK,0.708
6,DEDKLREVAEEMNKGDPQTLADNADKDARLRVGDREWHGREDVEKFNNQWRREVDHVDIERVTVSPNRVEAVYVVTVNGKRIHAKFEAKVHDGRIKEMTVSVTNPEQQKDLERQVD,-0.1
7,DEDKLTDKAHQIIRALETGDPDQIRNLAPPNVRFDYGDKRYHGREKAEERAKRERENIDHMEIKDFDVQGNKIQIRAVVEHNGRSREFVVTFEQNNGTLRFARMQSK,-0.342
8,DEDKLTRVEDFLRLQEQNNEDELLKQMDPNATQRYGNKHVHGSSEVKRFLHRLHREMRIRVEMKSVEVHGDEVVMKADFSKTFNGRPETLTATVVFKVHNGRIQKIIFEERK,1.41
9,DEDKMKEIAKKFMDYLVNGHADEVRKMGKEGVRVHVGDTTIQGPDQLKEYVKKFKDQGVHNEYKEEEVKGDTITMHTKAQLGNAEVDFEVHYVVKGDKVEKFEVKTDKKQQEKFKKS,-0.352
10,DEDKMKEVIEKVLRMLETGDPHEASKLADENAKIRYGDKTYHGRDQVHELLDRITKRVDHVEIKDFSVQGEQLVLHFVLNINGKNKEVVLVATVHNGRIKSLHVDDQ,1.26
11,DEDKMKSILTVAQEGDPDEMKRQADEDARVHIGDKRVHGRESFQKAMDEYTKAVDSQHVKRVSSRENRVKVTAVLRFNGSHIDVVVQIRAHNGRIEEIIFRVTDPKQKTTLKKIIS,0.053
12,DEDKMLKIAQEMAEAVVNGNVEQMKKQAHEGVQVHVGDEEVHGPDQLEEYVKKFKDQGVEVHYKETEHKGDTVTLKTTAVLGDAQVEFEAHYVVKGDKLQRFEVKLNKEQLKDFRKS,0.242
13,DEDKMLKVAKEAVEAITKGNAEQIKKVGKEGVQVTFGDEKYHGPDQLEEYVKKVKDQGNHIEYKEQEFKGDTATVKTEAEKGDQKVTFEVHYQVKGNKLDRLEVRFDKEQQKKFEQS,-0.256
14,DEDKNKEAVERFLHNLENGDWQSLADLADKNAKVQIGDETVSGRESAQNELRKFAERVDHVDYHDMTVQGDKFEVVFQEDHNGRKRKVVAEFRVKNGRFKHVVFDDG,-0.008
15,DEDKNKKFADKVVRALEQNNEEEMNELFPPDARVEVGDKQIHGREEIQKYMQKIRDQVDHVEVKSMEVDGDKITVHVTVHHNGTSRTVVFIFHVRNGRLTEMKVKTG,0.04
16,DEDKNKKRAEEWQRILEDNDEERFSKLADKDVRFVIGDKEVHGSEQAETWIRTIKHRVDHIQLEDMKVNGNKIVIDLVMVHNGRKHRYKVVMEFHNGSVKYVQYNDS,-0.06
17,DEDKNNRDMQDMIRAVITNDEKRVQELMDPNASVTVGDHTFKGTEAVTHLITDLRNHIDHVELNSVSVHNGKAKADMVFTVNGQHVKIEMNAQAHNGKVTQFDVSARSEEEHKKYKQ,-0.542
18,DEDKQAKEMMKRFVHMMQEGDPSEAKRLFDKNARLVVGDKRFHGQHEASKFAEEIKKRYDKVHVELKDLKVHGDKVDAKAKVVLNDNGQKDTHEVVITALFHNGRIKVQEVRVQ,0.983
19,DEDKQHEFATRNVKAWETNDENQMRRLMDPNAKVRIGDKEYRGREEILRLLNEFKKRVDHVQVKSYDVHNGHVHINIVASVNGQRHEMHVKFQFHNGEIVKMQIDDS,0.203
20,DEDKQLHELFERLVEAIRNGDPKKYQDNADENAKIRVGDKEYTGREQLEKLVEDIRKDVDHLEVDFKRVKVEGDKATAIVKVRANFNGKNDDTMYQYQAKIHGDKIHVVNVQQS,0.165
21,DEDKQRKRAETAAHIVENNNPDEQNKLADKDVTMQVGETQVHGREDLKELMEEMREQFDHIRVRSFDAHGNKVRLRFHAEYNGVTLEFVIINNYHNGKVQSINLRVTNPEEFRKAQG,0.122
22,DEDKQRKTADEIQKVIKQGDEKKAEDLFDENAKLSIGDKFYRGKEDFKRWFRSLRDRIDHFQVKDLEVDGERAEFVVVFHVNGKNVEMVIEIHVHNGKVKHARVNPEDERKLNT,1.05
23,DEDKRAREAAETAIQALRTGDPDKMVKLMDPNARVRVGDKTVTGHEEIRRWMQTIQDQIDHADITVESLTVNNGRAELIFVANFDRNGRTERTRYNLEIDVRGDKVQAHQMDHG,1.22
24,DEDKRARKFADTMRKVLEKGNEEEFRDMMDKDVSFKYGDKEVRGREEAAKRLKDTVKRVDRVEVNIKSIHVQGDKVSIDMLIVNDHNGKHHHRRLVFYAKDDNGKLVVVKVTER,1.86
25,DEDKRKLVEDLIEAEERGDNERIKELADKDAEYIYGDKTVEGREEHAKEVKKKHDQQRVKITSMRINAHGDKIQVSIEYTVEDNGQPRRARVHIKFVIHNGRFQSMHIQDHR,-0.253
